Target: the molecule itself
Assay: SEC + AUC

B1: ΔNterm-Them1 (Mus musculus Thioesterase superfamily member 1, thioesterase domains and START domain, residues 43-594) (enzyme, UniProt Q8VHQ9 43-594, looked up)
chain: YRNPTEVQMSQLVLPCHTNHRGELSIGQLLKWIDTTACLSAERHAGCPCVTASMDDIYFDHTISVGQVVNIKAKVNRAFNSSMEVGIQVVSEDLCSEKQWSVCKALATFVAHRELSKVKLKQVIPLTEEEKTEHGVAAERRRMRLVYADTIKDLLTHCVIQDDLDKDCSNMVPAEKTRVESVELVLPPHANHQGNTFGGQIMAWMENVATIAASRLCHAHPTLKAIEMFHFRGPSQVGDRLVLKAIVNNAFKHSMEVGVCVEAYRQEAETQRRHINSAFMTFVVLDKDDQPQKLPWIRPQPGEGERRYREASARKKIRLDRKYLVSCKQAEVALSVPWDPSNQVYLSYYNVSSLKTLMAKDNWVLSVEISEVRLYILEEDFLSFHLEMVVNVDAAQVFQLLSDLRRRPEWDKHYRSVELVQQVDEDDAIYHVISPALSGNTKPQDFVILASRRKPCDNGDPYVIALRSVTLPTHHETPEYQRGETLCSGFCLWREGDQMTKVSYYNQATPGFLNYVTTNVSGLSSEFYNTFKACESFLLDNRNDLAPSLQTL
Question: Which “stoichiometry N” value does the source give for B1 here?
Answer: 3
